Measured values published in patent publication US20240084003A1 (SIMCERE ZAIMING PHARMACEUTICAL, published 2024).
Positions count from the first letter of the chain named.

B1: HA22-hIgG1 (antibody, V domains shown)
VH: EVQLVESGGGLVKPGGSLKLSCAASGFAFSIYDMSWVRQTPEKCLEWVAYISSGGGTTYYPDTVKGRFTISRDNAKNTLYLQMSSLKSEDTAMYYCARHSGYGTHWGVLFAYWGQGTLVTVSA
VL: DIQMTQTTSSLSASLGDRVTISCRASQDISNYLNWYQQKPDGTVKLLIYYTSILHSGVPSRFSGSGSGTDYSLTISNLEQEDFATYFCQQGNTLPWTFGCGTKLEIKR
B2: F1.17.1 (antibody, human IgG1, kappa, V domains shown)
VH: QVQLKESGPGLVAPSQSLSITCTVSGFSLSRYTVHWVRQPPGKGLEWLGMIWGGGSTDYNSALKSRLSISKDNSKSQVFLKMNSLQTDDTAMYYCARPHDFDAGGFAYWGQGTLVTVSA
VL: QIVLTQSPAILSTSPGEKVTMTCSASSRVNYMYWYQQKPGSSPRLLIYDTSNLASGVPVRFSGSGSGTSYSLTISRMEAEDAATYYCQQWTSYPLTFGAGTKLELKR
notes: Human-murine chimeric IgG1, kappa
B3: F1.224.1 (antibody, human IgG1, kappa, V domains shown)
VH: EVLLHQSGPELVKPGASVKISCKASGYTFTDFNMDWVRQRHGQSLEWIGDVNPNNGGTIYNQKFKGKATLTVDKSSSTVYMDLRSLTSDDTAVYYCVRLGTSDYGEAWFISWGQGTVVTVSA
VL: DIVLTQSPASLAVSLGQRATISCRASQSVSTPRYSFMHWYQQKPGQPPKLLIKYASNLESGFPARFTGSGSGTDFTLNIHPVEEEDTAAYYCQQSWAIPWTFGGGTKLEIKR
notes: as for B2
B4: F1.200.11 (antibody, human IgG1, kappa, V domains shown)
VH: QNQLVQSGPELKKPGETVKISCKASGYTFTTAGMQWVQKMPGKGFKWIGWINTLSGEPKYAEDFKGRFAFSLETSATTAYLQISNLKNEDTATYFCARAYYSNLYWYFDVWGTGTTVTVSS
VL: DIVMTQSQKFMSTTVGDRVTITCKASQNVVTAVAWYQQKPGQSPKVLIYSASNRYSGVPDRFTGSGSGTDFTLTISNMHSEDLANYFCHQYSSYPFTFGSGTKLEIKR
notes: as for B2
B5: HA22-hIgG1 (antibody, V domains shown)
VH: B1 VH
VL: B1 VL
B6: F1.120.15 (antibody, human IgG1, kappa, V domains shown)
VH: QVQLQQSGPELVKPGASVKISCKASGNAFSNSWMNWVKQRPGKGLEWIGRVYSEDGDTQYNGKFRDKATLTADRSTSTAYMQLSSLTSEDSAVYFCARWLIYYGTYGAMDYWGQGTSVTVSS
VL: B1 VL with S30N, Q37H, Y50F, I53R, L54P, H55Y, F83I, C100G
notes: as for B2
B7: F1.105.11 (antibody, human IgG1, kappa, V domains shown)
VH: EVQLQQSGPVLVKPGASVKMSCKASGYTFSDYFMNWVKQSHGKSLEWIGIINSYSGGTSYNQKFKGKATLTVDKSSSTAYMELNSLTSEDSAVYYCARWMDYWGQGTSVTVSS
VL: DVQITQSPSYLAASPGETITINCRTSESISKHLAWYQEKPGKTNKLLIYSGSTLQSGIPSRFSGSGSGTDFTLTISSLEPEDFAMYYCQQHNEYPWTFGGGTKLEIKR
notes: as for B2
B8: F1.216.2 (antibody, human IgG1, kappa, V domains shown)
VH: QVQLQQSGPEVVRPGASVKISCKASGYAFSSSWMNWMKQRPGKALEWIGRIYPGDGDTNYSGEFKVKATLTADKSSSTAYMQLSSLTSEDSAVYFCAREGSYYSNPWYFDYWGQGTTLTVSS
VL: DVLVTQTPLSLPVSLGDQASISCRSSQSIVQSNGDTYLEWYLQKPGQSPKLLIYKVSNRFSGVPDRFSGSGSGTDFTLKISRVEAEDLGVYYCFQGSHVPFTFGSGTKLEIKR
notes: as for B2

Target: T1, monkey CD22 on HEK293T-monkey CD22 cells (monkey)
T1 construct: full-length entry expressed on stably transfected HEK293T cells
T1 chain: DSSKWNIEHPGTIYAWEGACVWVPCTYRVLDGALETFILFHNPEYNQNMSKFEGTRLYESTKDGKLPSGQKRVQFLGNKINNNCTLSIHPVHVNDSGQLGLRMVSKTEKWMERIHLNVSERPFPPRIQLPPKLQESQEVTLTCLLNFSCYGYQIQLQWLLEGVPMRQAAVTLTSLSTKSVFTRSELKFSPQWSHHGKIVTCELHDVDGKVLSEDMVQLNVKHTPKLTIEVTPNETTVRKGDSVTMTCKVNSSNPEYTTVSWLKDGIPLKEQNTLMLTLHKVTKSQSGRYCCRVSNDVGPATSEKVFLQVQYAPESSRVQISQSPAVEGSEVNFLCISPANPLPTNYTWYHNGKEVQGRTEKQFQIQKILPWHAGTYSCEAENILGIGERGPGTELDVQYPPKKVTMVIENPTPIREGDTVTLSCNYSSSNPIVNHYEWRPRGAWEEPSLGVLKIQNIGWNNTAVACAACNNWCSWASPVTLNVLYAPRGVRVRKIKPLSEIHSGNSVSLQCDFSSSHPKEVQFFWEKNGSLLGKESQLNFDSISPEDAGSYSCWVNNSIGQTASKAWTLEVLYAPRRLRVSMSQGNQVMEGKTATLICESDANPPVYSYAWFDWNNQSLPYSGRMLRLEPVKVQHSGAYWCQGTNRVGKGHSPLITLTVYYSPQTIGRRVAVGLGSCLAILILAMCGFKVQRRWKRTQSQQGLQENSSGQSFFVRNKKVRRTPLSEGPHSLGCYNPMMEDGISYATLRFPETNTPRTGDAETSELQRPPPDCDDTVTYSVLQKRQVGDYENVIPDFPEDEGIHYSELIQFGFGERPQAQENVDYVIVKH
Assay: FACS, HEK293T-monkey CD22 cells
Experimental: For suspension cell Raji, the medium supernatant was directly centrifuged and discarded, and the cell pellet was washed 2 times with PBS. After counting the cells in the previous step, the cell pellet was resuspended with [PBS+2% (w/w) BSA] blocking solution to 2×10⁶ cells/ml, and added to a 96-well FACS reaction plate at 50 μl/well, and then the chimeric antibody test sample was added at 50 μl/well, and incubated on ice for 2 hours. The mixture was centrifuged and washed 3 times with PBS buffer, Alexa Flour 488-labeled secondary antibody (purchased from Invitrogen, catalog number: A-11013) was added at 50 μl/well, and incubated on ice for 1 hour. The obtained mixture was centrifuged and washed 5 times with PBS, and FACS (FACS Canto™, purchased from BD Company) was used for detection and result analysis. Data analysis was performed by software (CellQuest) to obtain the mean fluorescence density (MFI)of the cells. And then software (GraphPad Prism8) was used for analysis, data fitting, and EC50 value calculation. […] The same method was used to detect the binding of the chimeric antibodies to endogenous CD22-negative cell MoLT4 cells (purchased from ATCC, CRL-1582) and CHO-K1 cells.
HEK293T-monkey CD22 cells were subjected to FACS detection and data analysis according to the method in Example 5.2.

Row | Binder | EC50 [nM] | Maximum mean fluorescence intensity [MFI]
1 | B1 | 0.91 | 17100

target: T2, murine CD22 protein (ACROBiosystems, SI2-M52Ha) (murine, UniProt P35329 22-708); assay: ELISA, murine CD22-ECD-His coated
T2 construct: extracellular domain; also called murine CD22-ECD; murine CD22-ECD-His
T2 sequence (looked up): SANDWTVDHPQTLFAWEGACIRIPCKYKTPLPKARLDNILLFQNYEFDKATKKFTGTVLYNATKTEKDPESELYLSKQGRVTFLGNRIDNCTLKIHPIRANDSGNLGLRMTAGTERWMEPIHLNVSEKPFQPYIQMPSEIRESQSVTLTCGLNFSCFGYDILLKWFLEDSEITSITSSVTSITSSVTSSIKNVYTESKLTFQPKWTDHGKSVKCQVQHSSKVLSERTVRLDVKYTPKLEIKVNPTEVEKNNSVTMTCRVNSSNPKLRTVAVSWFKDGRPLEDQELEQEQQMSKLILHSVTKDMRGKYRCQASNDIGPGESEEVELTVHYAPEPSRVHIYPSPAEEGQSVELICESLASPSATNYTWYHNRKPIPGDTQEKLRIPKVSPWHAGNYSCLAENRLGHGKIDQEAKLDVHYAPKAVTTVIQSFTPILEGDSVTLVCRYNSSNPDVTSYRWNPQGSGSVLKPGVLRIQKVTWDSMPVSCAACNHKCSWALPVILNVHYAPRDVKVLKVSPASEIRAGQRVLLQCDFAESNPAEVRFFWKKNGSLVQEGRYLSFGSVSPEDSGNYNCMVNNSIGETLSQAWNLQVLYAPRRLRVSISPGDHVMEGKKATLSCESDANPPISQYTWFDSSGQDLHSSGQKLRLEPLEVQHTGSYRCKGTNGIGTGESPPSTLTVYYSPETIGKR
Outline: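 Read-out is TMB absorbance after a 30 min room-temperature development stopped with 1.0 N HCl. It reflects chimeric antibody bound to plate-coated CD22 (2 μg/mL), detected with an HRP-labelled secondary antibody. Antibody and secondary incubations each ran 2 h at 37° C.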

Row | Binder | binding result
2 | B2 | no binding (tested: 100 nM)
3 | B3 | no binding (tested: 100 nM)
4 | B4 | no binding (tested: 100 nM)
5 | B5 | no binding (tested: 100 nM)
6 | B6 | no binding (tested: 100 nM)
7 | B7 | no binding (tested: 100 nM)
8 | B8 | no binding (tested: 100 nM)
